Protein stability index data for 28 sequences are collected here from the supplement of paper PMC9732359.

The data set is described as follows: protein stability index of a GFP-peptide fusion (yeast GPS) (PSI 1-4); higher = more stable; sorted into four equal gates, so the index is relative within each strain. The method in brief:
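Yeast carrying a pooled library were grown to mid-log phase in leucine-free medium. Each library plasmid expresses Cherry and has a tiled 17-residue yeast protein peptide fused downstream of GFP. Cells were sorted into four equal gates by GFP/Cherry ratio, and plasmids from each gate were PCR-amplified, Illumina-sequenced and assigned to strains by barcode. Summing, across gates, the read frequency times the gate number gave each peptide's protein stability index.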

± gives the uncertainty stated by the source.

Take EGLIRLDNLTEDPNSAA [DIS3]: the protein stability index was 3.23 ± 0.066 (doa10∆), 3.31 ± 0.061 (pdr5∆), 3.229 ± 0.032 (san1∆) and 3.185 ± 0.031 (ubr1∆).
EGQENNYNSTSRSTEKK [SIR4]: the protein stability index worked out at 3.3 ± 0.17 (doa10∆), 3.26 ± 0.13 (pdr5∆), 2.65 ± 0.17 (san1∆) and 3.25 ± 0.11 (ubr1∆).
Take EGYQNDINTIKLQLSFV [SRP72]: the protein stability index by setting is: (doa10∆) 3.12 ± 0.21; (pdr5∆) 2.73 ± 0.088; (san1∆) 2.1 ± 0.26; (ubr1∆) 3.07 ± 0.14.
For EHAKWGPAAAIEFEYDP [RPB3], in that order: 2.54 ± 0.078, 3.01 ± 0.074, 2.36 ± 0.07 and 3.09 ± 0.075.
Regarding EHIKQDYVASLNELYQT [NSL1], the protein stability index amounted to 2.91 ± 0.062 (doa10∆), 3.1 ± 0.057 (pdr5∆), 2.84 ± 0.047 (san1∆) and 2.88 ± 0.053 (ubr1∆).
In the same order, the values of EHKPVSPDKIGTFTADY [SSN2] are 2.98 ± 0.071, 3.15 ± 0.051, 2.9 ± 0.058 and 3.09 ± 0.048.
For EIEELKSSIQNLNELES [SMC3], in that order: 1.66 ± 0.2, 2.06 ± 0.17, 2.07 ± 0.28 and 2.71 ± 0.21.
In the same order, the values of EIEQVCKQVHDKLTSIQ [MED7] are 2.92 ± 0.067, 3.23 ± 0.04, 2.92 ± 0.06 and 2.89 ± 0.055.
Regarding EIHPITFPPEVLARISP [RRP43], the protein stability index stood at 2.05 ± 0.041 (doa10∆), 2.57 ± 0.054 (pdr5∆), 2.4 ± 0.049 (san1∆) and 1.94 ± 0.041 (ubr1∆).
Take EIIPLQDYYIIGANIYQ [MED6]: the protein stability index (doa10∆) is 2.97 ± 0.064, the protein stability index (pdr5∆) was determined as 3.07 ± 0.052, the protein stability index (san1∆) was 3.16 ± 0.04 and the protein stability index (ubr1∆) is 3.1 ± 0.044.
Sequence EIITSLSMRFQRETSGM [SRB8] returned a protein stability index (pdr5∆) of 2.28 ± 0.18 and a protein stability index (ubr1∆) of 2.47 ± 0.17.
As to EIKKVTQIVAKFPETSY [SIN4], the protein stability index reads like this: (doa10∆) 2.25 ± 0.27; (pdr5∆) 3.02 ± 0.11; (ubr1∆) 2.57 ± 0.27.
Consider EILYYQIKTLPEQYSDI [AAR2], for which the protein stability index by setting is: (doa10∆) 2.9 ± 0.081; (pdr5∆) 3.14 ± 0.084; (san1∆) 2.77 ± 0.067; (ubr1∆) 2.91 ± 0.046.
In the same order, the values of EIMQQKFPATNVTTILD [ECM29] are 2.41 ± 0.061, 2.47 ± 0.055, 2.19 ± 0.063 and 2.45 ± 0.057.
Turning to EIQPRANIQLDFPELKP [FAS2], the protein stability index came to 3.13 ± 0.064 (doa10∆), 3.11 ± 0.063 (pdr5∆), 3.12 ± 0.076 (san1∆) and 3.26 ± 0.042 (ubr1∆).
EIRRFQKSTELLIRKLP [HHT1] came in with a protein stability index (doa10∆) of 2.64 ± 0.13, a protein stability index (pdr5∆) of 2.74 ± 0.095, a protein stability index (san1∆) of 1.87 ± 0.24 and a protein stability index (ubr1∆) of 2.25 ± 0.12.
EITEKKNGESLEGEEIK [RPN1] showed a protein stability index (pdr5∆) of 3.03 ± 0.3.
As to EIVNMVPSHVPQVLINR [SIR2], the protein stability index by setting is: (doa10∆) 3.13 ± 0.11; (pdr5∆) 2.93 ± 0.079; (san1∆) 2.53 ± 0.11; (ubr1∆) 2.88 ± 0.054.
EIVRDILHTKESSNEAK [SIR4]: the protein stability index by setting is: (doa10∆) 2.75 ± 0.067; (pdr5∆) 2.96 ± 0.074; (san1∆) 2.82 ± 0.06; (ubr1∆) 2.75 ± 0.059.
For the sequence EKDAKINKLMEKDFQVN [SIR4], the protein stability index is, setting by setting: (doa10∆) 3.22 ± 0.067; (pdr5∆) 3.44 ± 0.07; (san1∆) 3.3 ± 0.07; (ubr1∆) 3.47 ± 0.055.
For EKDLEHWLQLAKGVYRP [POP1], in that order: 2.64 ± 0.072, 3 ± 0.067, 3.15 ± 0.041 and 3.1 ± 0.064.
EKELKIFTDAGRVYRPL [RPB2] displayed a protein stability index (doa10∆) of 3.04 ± 0.067, a protein stability index (pdr5∆) of 3.44 ± 0.082, a protein stability index (san1∆) of 3.09 ± 0.063 and a protein stability index (ubr1∆) of 3.34 ± 0.042.
In the same order, the values of EKESDDGLLEYLEDIIG [SMC4] are 3.47 ± 0.091, 3.31 ± 0.075, 3.15 ± 0.079 and 3.54 ± 0.1.
Consider EKIFHYGHVFLGITGLA [PUP3], for which the protein stability index by setting is: (doa10∆) 1.17 ± 0.086; (pdr5∆) 1.34 ± 0.094; (san1∆) 1.15 ± 0.18; (ubr1∆) 1.05 ± 0.074.
For the sequence EKIMENKYPELLGKDNE [AAR2], the protein stability index reads like this: (doa10∆) 3.04 ± 0.073; (pdr5∆) 3.24 ± 0.062; (san1∆) 3.24 ± 0.039; (ubr1∆) 2.96 ± 0.045.
In the same order, the values of EKKLEDYCRILSDIETA [YGL172W/NUP49] are 1.75 ± 0.11, 3.14 ± 0.09, 2.67 ± 0.11 and 2.55 ± 0.089.
Take EKLDVSRSSVCVKAIEA [YCG1]: the protein stability index reads like this: (doa10∆) 2.54 ± 0.065; (pdr5∆) 2.16 ± 0.058; (san1∆) 2.08 ± 0.079; (ubr1∆) 2.11 ± 0.058.
For EKPLTPLKYTKLIAAAE [SNF6], in that order: 1.25 ± 0.23, 1.27 ± 0.12, 1.22 ± 0.21 and 1.15 ± 0.2.
